According to IntAct's records for PubMed 11713520:

B1: Auxin-responsive protein IAA17 (Arabidopsis thaliana (Mouse-ear cress)), P93830 (parent)
chain: MMGSVELNLRETELCLGLPGGDTVAPVTGNKRGFSETVDLKLNLNNEPANKEGSTTHDVVTFDSKEKSACPKDPAKPPAKAQVVGWPPVRSYRKNVMVSCQKSSGGPEAAAFVKVSMDGAPYLRKIDLRMYKSYDELSNALSNMFSSFTMGKHGGEEGMIDFMNERKLMDLVNSWDYVPSYEDKDGDWMLVGDVPWPMFVDTCKRLRLMKGSDAIGLAPRAMEKCKSRA
partner: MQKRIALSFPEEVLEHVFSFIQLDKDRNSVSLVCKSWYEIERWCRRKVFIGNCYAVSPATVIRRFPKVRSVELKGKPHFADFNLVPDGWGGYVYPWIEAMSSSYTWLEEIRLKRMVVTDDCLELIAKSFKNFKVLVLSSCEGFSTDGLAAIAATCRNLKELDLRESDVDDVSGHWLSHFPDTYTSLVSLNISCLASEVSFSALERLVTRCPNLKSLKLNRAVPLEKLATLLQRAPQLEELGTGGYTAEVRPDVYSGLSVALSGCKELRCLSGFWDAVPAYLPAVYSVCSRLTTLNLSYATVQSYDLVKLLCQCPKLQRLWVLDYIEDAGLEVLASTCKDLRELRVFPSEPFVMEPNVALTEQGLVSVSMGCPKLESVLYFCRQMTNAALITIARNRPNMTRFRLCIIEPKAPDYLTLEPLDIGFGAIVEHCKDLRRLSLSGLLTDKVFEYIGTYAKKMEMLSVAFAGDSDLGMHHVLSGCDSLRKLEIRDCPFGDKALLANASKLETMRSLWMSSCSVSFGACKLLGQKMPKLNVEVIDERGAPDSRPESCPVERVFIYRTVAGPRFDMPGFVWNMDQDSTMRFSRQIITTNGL

Variants of: B1
Details: with tir1_arath TIR1, Q570C0

Row | effect of a mutation on the interaction | Variant
1 | decreasing interaction | P88L
